According to patent US20140086913A1 (Gilead, published 2014):

T1: human DDR2 stably expressed on HEK293 cells (human, UniProt Q16832 22-855)
T1 construct: whole, on cells; also called hDDR2
T1 sequence (looked up): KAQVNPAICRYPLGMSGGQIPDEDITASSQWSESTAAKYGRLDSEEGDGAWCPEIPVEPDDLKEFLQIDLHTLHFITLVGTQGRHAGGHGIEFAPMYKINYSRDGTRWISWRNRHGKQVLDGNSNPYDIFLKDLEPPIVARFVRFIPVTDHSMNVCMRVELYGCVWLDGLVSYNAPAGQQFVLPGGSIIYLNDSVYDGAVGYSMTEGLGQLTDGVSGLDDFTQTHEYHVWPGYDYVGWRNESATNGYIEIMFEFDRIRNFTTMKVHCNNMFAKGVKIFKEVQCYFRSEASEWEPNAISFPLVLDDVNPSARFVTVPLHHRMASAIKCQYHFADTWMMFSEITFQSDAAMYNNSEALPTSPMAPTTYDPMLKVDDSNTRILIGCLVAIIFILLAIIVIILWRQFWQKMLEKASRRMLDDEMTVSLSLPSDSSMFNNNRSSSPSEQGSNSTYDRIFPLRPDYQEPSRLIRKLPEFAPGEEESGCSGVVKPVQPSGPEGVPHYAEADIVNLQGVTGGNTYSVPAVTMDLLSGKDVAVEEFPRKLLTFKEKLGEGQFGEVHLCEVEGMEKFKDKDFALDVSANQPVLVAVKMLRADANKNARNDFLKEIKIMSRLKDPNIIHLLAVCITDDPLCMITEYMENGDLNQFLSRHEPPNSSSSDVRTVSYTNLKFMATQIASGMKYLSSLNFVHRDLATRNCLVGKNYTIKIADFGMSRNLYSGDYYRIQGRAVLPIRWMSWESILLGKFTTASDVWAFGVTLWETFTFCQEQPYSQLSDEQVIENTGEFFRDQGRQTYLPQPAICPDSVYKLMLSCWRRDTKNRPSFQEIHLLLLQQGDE

T2: mouse ECD-DDR1-Fc (mouse; human, UniProt Q03146 22-414)
T2 construct: also called mouse DDR1-ECD; wild-type mouse DDR1-ECD; not shown: human IgG1 Fc of the vector pFuse-hIgG1-Fc1 (Invivogen)
T2 sequence: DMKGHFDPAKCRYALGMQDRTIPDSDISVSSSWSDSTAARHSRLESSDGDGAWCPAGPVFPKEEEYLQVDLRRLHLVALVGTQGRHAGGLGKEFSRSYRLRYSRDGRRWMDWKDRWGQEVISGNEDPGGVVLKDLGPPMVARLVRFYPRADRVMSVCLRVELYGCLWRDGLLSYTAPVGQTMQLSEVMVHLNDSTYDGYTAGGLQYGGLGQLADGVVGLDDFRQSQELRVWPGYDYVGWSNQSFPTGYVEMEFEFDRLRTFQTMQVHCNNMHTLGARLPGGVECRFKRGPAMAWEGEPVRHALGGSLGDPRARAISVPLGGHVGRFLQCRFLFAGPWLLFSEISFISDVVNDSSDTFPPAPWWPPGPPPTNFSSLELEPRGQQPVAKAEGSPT


Assays:
[1] = molecular target: human DDR1 (isoform B) stably expressed on HEK293 cells (human) (UniProt Q08345); test: flow cytometry, HEK293/hDDR1
human DDR1 (isoform B) stably expressed on HEK293 cells (human), sequence (Q08345 19-913): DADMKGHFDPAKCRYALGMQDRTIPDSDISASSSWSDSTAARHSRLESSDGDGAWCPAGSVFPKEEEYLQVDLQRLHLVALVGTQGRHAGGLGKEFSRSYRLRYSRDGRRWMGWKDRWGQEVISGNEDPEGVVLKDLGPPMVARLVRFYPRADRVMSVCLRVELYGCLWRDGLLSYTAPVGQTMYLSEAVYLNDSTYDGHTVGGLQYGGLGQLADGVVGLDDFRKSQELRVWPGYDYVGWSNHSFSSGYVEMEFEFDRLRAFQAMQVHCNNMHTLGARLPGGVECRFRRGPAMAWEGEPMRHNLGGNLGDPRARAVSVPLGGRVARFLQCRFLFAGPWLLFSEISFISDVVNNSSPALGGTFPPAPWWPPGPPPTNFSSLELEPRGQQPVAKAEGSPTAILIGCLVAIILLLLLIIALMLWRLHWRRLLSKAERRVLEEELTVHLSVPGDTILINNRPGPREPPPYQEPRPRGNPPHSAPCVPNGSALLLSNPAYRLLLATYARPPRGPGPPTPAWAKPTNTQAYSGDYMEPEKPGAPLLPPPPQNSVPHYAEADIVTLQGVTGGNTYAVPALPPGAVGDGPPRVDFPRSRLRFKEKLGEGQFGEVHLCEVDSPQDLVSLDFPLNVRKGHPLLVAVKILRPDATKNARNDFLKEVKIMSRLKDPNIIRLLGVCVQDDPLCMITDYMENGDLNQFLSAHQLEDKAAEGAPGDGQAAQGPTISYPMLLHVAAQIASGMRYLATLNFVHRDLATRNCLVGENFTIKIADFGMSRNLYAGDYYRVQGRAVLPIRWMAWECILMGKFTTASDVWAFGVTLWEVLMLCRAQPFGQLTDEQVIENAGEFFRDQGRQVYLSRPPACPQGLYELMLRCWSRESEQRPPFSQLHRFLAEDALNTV

[2] = molecular target: T1, human DDR2 stably expressed on HEK293 …; test: flow cytometry, HEK293/hDDR2
Method: Additional monoclonal antibodies were obtained from individual hybridomas in Example 1 and were characterized for their properties.
Cells were cultured in DMEM with 10% FBS and 0.8 mg/mL hygromycin. When cells reached 60-80% confluence, they were centrifuged at 1,200 rpm for 5 minutes, suspended in FACS buffer (1×PBS, 1% BSA), and aliquoted into a 96-well plate at 1×10⁶ cells per well. The anti-DDR1 monoclonal antibodies or appropriate isotype controls at 2 μg per 1×10⁶ cells were added and incubated at 4° C. for 1 hr. The cells were washed twice with FACS buffer then stained with the anti-IgG-PE secondary antibody at 10 μL per well at 4° C. for 1 hr. The cells were washed again and measured for the MFI values or signals using flow cytometry (LSR Fortessa instrument, BD Biosciences). Background MFI signals from vector-only cells (i.e. no DDR1 or DDR2 expression) was subtracted from those of the cells treated with antibodies. Higher MFI values or signals indicated increased binding or specificity of the anti-DDR1 antibodies to the DDR1 on the cell surface.

[3] = molecular target: DDR1 endogenously expressed on human cancer cell lines (T47D, HCT-116, A431) (human) (UniProt Q08345); test: cell-based or functional assay
[4] = molecular target: DDR1 with a ProLink Tag (PK) in engineered U20S cells (DiscoveRx) (UniProt Q08345); test: cell-based or functional assay
[5] = molecular target: DDR1 endogenously expressed on human cancer cell lines (T47D, HCT-116, A431) (human) (UniProt Q08345); test: flow cytometry, HCT116 cells
[6] = molecular target: human DDR1 (isoform B) stably expressed on HEK293 cells (human) (UniProt Q08345); test: flow cytometry, HEK293/human DDR1, normalized to empty-vector cells
[7] = molecular target: DDR1 endogenously expressed on human cancer cell lines (T47D, HCT-116, A431) (human) (UniProt Q08345); test: flow cytometry, T47D cells
[8] = molecular target: T3, DDR1ECD-Fc (R&D Systems, Catalog #2396-DR) (human, UniProt Q08345 21-416); test: ELISA
T3 construct: range 21-416; construct as described for the bought immunogen; also called human ECD-DDR1-Fc; Fc-ECD-DR1; not shown: human IgG1, Pro100-Lys330

[9] = molecular target: T3, DDR1ECD-Fc (R&D Systems, Catalog …); test: ELISA, coated antigen, apparent KD
Method: (§1) In this study, ELISA was used to determine the affinity of murine anti-DDR1 monoclonal antibodies to the extracellular domain (ECD) of either human or murine DDR1. A 96-well MaxiSorb ELISA plates (Nunc) were coated with 2 μg/mL of one of three purified recombinant tagged proteins: human ECD-DDR1-His protein, human ECD-DDR1-Fc, or mouse ECD-DDR1-Fc overnight at 4° C. The next day, the plates were blocked with 5% bovine serum albumin (BSA, Jackson Immunoresearch) prior to the addition of serially diluted anti-DDR1 monoclonal antibodies. Antibodies were incubated for 1 hr at room temperature. The binding of antibody to the antigen was detected by incubating samples with anti-mouse IgG-HRP (horse radish peroxidase) secondary detection antibody (Jackson Immunoresearch) for 1 hr. After a washing step, 3,3′,5,5″-tetramethylbenzidine (TMB) reagent was added for HRP to produce a colorimetric signal. The reaction was stopped by addition of 1M hydrochloric acid after 2 minutes and measured for absorbance (optical density, OD) at 450λ on a Molecular Devices plate reader. The OD values were plotted against antibody concentration and fitted using a using 4-parameter logistic equation in SoftMax software (Molecular Devices). The apparent affinity constant (KD) was taken from the C-parameter of the equation (y=(A−D)/(1+(x/C)̂B)+D). The apparent affinity constants were summarized (in some cases shown as average values) in Table 10 below. Lower value indicates higher binding affinity of the antibody to the antigen.

[10] = molecular target: T4, human ECD-DDR1-His protein (human, UniProt Q08345 21-416); test: ELISA, coated antigen, apparent KD
T4 construct: also called huDDR1-ECD-His; DDR1ECD-6Xhis; not shown: His tag
Method: as §1

mouse ECD-DDR1-Fc = molecular target: T2, mouse ECD-DDR1-Fc; test: ELISA, coated antigen, apparent KD
Method: as §1

[11] = molecular target: DDR1 with a ProLink Tag (PK) in engineered U20S cells (DiscoveRx), Q08345; test: cell-based or functional assay

Row | MFI [1] [MFI] | MFI [2] [MFI] | EC50, DDR1 phospho-specific ELISA (T47D) [3] [nM] | Maximal inhibition, DDR1 phospho-specific ELISA (T47D) [3] [%] | NPI of cluster formation at 66 nM (A431 cells) [3] [%] | Mean EC50, DDR1 Tyr513 phosphorylation assay (U20S) [4] [nM] | MFI [5] [MFI] | MFI [6] [MFI] | MFI [7] [MFI] | Kd [8] [nM] | Kd [9] [nM] | Kd [10] [nM] | Kd (mouse ECD-DDR1-Fc) [nM] | Mean EC50, DDR1 Tyr513 phosphorylation assay (U20S) [11] [nM] | EC50, cluster formation assay (A431 cells) [3] [nM] | Binder
1 | 7810 | 382 | 0.47 | 100 | 112 | 1.5 | 1470 | 7810 | 4420 | 0.259 | 0.259 | 0.47 | 28.5 |  |  | AB2074 (antibody, V domains shown, mouse hybridoma mAb) VH: EIQLQQSGPELVNPGASVKVSCKASGYSFTDYNMYWVKQSHGKSLEWIGYIDPYNGGTSYNQKFKGKATLTVDKSSSTAFMHLNSLTSEDSAVYYCAREYYGSRLWYFDVWGAGTAVTVSS VL: DIVMTQSPSSLAMSVGQKVTMSCKSSQSLLNRNNQKNYLAWYQQKPGQSPKLLVYFASTRESGVPDRFIGSGSGTDFTLTLSSVRAEDLAENFCQQHYSTPFTFGSGTRLEIKR
2 | 6350 | 203 | 0.39 | 100 | 115 |  | 1540 | 6350 | 4670 | 0.298 | 0.298 | 0.161 | 17.9 | 1.7 |  | AB2026 (antibody, V domains shown, mouse hybridoma mAb) VH: EVQLVESGGGLVQPGGSLKFSCAASGFTFSSYGMSWVRQTPDKRLELVAIINSHGFSTYYPDSVKGRFTISRDNAKNTLYLQMSSLKSEDTAIYYCARGGYGNYGMDYWGQGTSVTVSS VL: DIVLTQSPASLAVSLGQRATISCRASESVDSYGNSFMHWYQQKVGQPPKLLIFRASNIESGIPARFSGSGSRTDFTLTINSVEADDVATYYCQQSNEAPYTFGGGTKLEIKR
3 | 8540 | 195 | 0.4 | 100 | 113 |  | 1460 | 8540 | 4600 | 0.257 | 0.257 | 0.148 | 17.3 | 0.99 | 0.63 | AB2031 (antibody, V domains shown, mouse hybridoma mAb) VH: EVQLVESGGGLVQPGGSLKFSCAASGFTFSSYGMSWVRQTPDKRLELVAIINSHGFSTYYPDSVKGRFTISRDNAKNTLYLQMSSLKSEDTAIYYCARGGYGNYGMDYWGQGTSVTVSS VL: DIVLTQSPASLAVSLGQRATISCRASESVDSYGNSFMHWYQQKVGQPPKLLIFRASNIESGIPARFSGSGSRTDFTLTINSVEADDVATYYCQQSNEAPYTFGGGTKLEIKR
